Experimental data as given in article PMC8097376 (EMBO Reports, 2021).

Key:
[1] = target: T1, RBD mutant derived from SARS-CoV-2 strain B.1.1.7 (UK) (SARS-CoV-2, B.1.1.7 (RBD N501Y), N501Y); experiment: BLI; details: both partners purified
T1 construct: also called RBD_(B.1.1.7); source: Expi293 cells, purified

[2] = target: T2, RBD mutant derived from SARS-CoV-2 strain B.1.351 (South Africa) (SARS-CoV-2, B.1.351 (RBD K417N, E484K, …, K417N | E484K | N501Y)); experiment: BLI; details: both partners purified
T2 construct: also called RBD_(B.1.351); source: Expi293 cells, purified

B1: nanobody NM1226 (VHH)
VHH: QVQLVESGGGSVQPGGSLRLSCLGSGSLDYYAIGWFRQAPGKEREGVSCIASSGDRTIYADSVKGRFTISRDYGKNTVYLQMNSLKPEDTAMYYCAALQGSYYYTGFVANEYDYWGQGAPVTVSS
B1 was tested, and the Kd [1] was ~5.4 nM and the Kd [2] was ~5.5 nM.
